The values that follow come from IntAct's records for PubMed 28360110.

The chains are these.
B1: Solute carrier family 26 member 9 (Homo sapiens), Q7LBE3-1 (parent)
chain: MSQPRPRYVVDRAAYSLTLFDDEFEKKDRTYPVGEKLRNAFRCSSAKIKAVVFGLLPVLSWLPKYKIKDYIIPDLLGGLSGGSIQVPQGMAFALLANLPAVNGLYSSFFPLLTYFFLGGVHQMVPGTFAVISILVGNICLQLAPESKFQVFNNATNESYVDTAAMEAERLHVSATLACLTAIIQMGLGFMQFGFVAIYLSESFIRGFMTAAGLQILISVLKYIFGLTIPSYTGPGSIVFTFIDICKNLPHTNIASLIFALISGAFLVLVKELNARYMHKIRFPIPTEMIVVVVATAISGGCKMPKKYHMQIVGEIQRGFPTPVSPVVSQWKDMIGTAFSLAIVSYVINLAMGRTLANKHGYDVDSNQEMIALGCSNFFGSFFKIHVICCALSVTLAVDGAGGKSQVASLCVSLVVMITMLVLGIYLYPLPKSVLGALIAVNLKNSLKQLTDPYYLWRKSKLDCCIWVVSFLSSFFLSLPYGVAVGVAFSVLVVVFQTQFRNGYALAQVMDTDIYVNPKTYNRAQDIQGIKIITYCSPLYFANSEIFRQKVIAKTGMDPQKVLLAKQKYLKKQEKRRMRPTQQRRSLFMKTKTVSLQELQQDFENAPPTDPNNNQTPANGTSVSYITFSPDSSSPAQSEPPASAEAPGEPSDMLASVPPFVTFHTLILDMSGVSFVDLMGIKALAKLSSTYGKIGVKVFLVNIHAQVYNDISHGGVFEDGSLECKHVFPSIHDAVLFAQANARDVTPGHNFQGAPGDAELSLYDSEEDIRSYWDLEQEMFGSMFHAETLTAL

In the assay the parent is B1. To be noted: with gopc_human GOPC.
Regarding T789A, the “effect of a mutation on the interaction” value is “decreasing interaction strength”.
